Measured values as given in publication PMC10897178, “FANCJ DNA helicase is recruited to the replisome by AND-1 to ensure genome stability” (EMBO Reports, 2024).
Substitutions are numbered along the chain they refer to.

Legend:
[1] = biological target: T1, Flag-tagged FANCJ D736H (human, UniProt Q9BX63 1-1249, D736H); assay: pull-down; GST-SepB α-helix bundle (0.5 µg) on Glutathione Sepharose 4B beads, purified Flag-FANCJ (0.5 µg) added; 25 mM Tris-HCl pH 7.5, 150 mM NaCl, 0.1% Triton X-100, 4 °C; washes with 300 mM NaCl, 1% Triton X-100; Western blot; details: both partners purified
T1 construct: FANCJ (BRIP1), human, full-length; missense variant found in invasive breast carcinoma; source: HEK 293T, transiently transfected, purified (anti-Flag M2 agarose)
T1 sequence (looked up): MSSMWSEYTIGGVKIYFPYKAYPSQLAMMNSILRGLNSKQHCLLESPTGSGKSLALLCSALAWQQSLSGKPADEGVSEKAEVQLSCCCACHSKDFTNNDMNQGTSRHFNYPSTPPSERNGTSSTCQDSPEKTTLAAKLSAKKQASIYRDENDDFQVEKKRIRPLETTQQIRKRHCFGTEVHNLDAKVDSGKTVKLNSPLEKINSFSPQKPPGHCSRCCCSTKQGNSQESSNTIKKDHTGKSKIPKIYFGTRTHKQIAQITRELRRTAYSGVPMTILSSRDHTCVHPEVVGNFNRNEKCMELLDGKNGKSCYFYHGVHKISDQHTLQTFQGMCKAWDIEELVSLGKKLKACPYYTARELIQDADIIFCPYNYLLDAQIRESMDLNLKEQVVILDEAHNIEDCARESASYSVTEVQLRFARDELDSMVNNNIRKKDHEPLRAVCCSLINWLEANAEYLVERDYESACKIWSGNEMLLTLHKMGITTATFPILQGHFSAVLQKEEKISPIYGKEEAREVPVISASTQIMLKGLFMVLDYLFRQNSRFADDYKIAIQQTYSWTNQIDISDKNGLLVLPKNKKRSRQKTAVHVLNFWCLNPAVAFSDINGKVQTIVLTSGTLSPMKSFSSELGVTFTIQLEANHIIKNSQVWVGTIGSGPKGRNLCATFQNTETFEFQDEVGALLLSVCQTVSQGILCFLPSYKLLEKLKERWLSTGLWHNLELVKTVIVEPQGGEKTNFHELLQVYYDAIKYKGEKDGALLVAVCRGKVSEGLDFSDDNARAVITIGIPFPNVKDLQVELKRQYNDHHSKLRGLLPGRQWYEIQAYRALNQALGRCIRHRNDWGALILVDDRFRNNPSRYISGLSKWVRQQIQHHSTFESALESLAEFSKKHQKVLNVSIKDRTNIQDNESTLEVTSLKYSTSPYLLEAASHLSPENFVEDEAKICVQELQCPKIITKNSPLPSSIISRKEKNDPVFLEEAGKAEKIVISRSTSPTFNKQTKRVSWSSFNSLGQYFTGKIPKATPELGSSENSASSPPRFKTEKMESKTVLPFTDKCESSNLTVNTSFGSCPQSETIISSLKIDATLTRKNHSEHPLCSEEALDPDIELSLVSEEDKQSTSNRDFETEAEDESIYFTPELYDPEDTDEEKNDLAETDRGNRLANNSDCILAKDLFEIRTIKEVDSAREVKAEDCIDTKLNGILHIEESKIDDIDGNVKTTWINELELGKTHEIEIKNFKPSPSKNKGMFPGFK

[2] = biological target: T2, Flag-tagged FANCJ N734H (human, UniProt Q9BX63 1-1249, N734H); assay: as above; details: both partners purified
T2 construct: FANCJ (BRIP1), human, full-length; missense variant found in uterine endometrial carcinoma; source: HEK 293T, transiently transfected, purified (anti-Flag M2 agarose)
T2 sequence (looked up): T1 sequence (looked up) with N734H, H736D

- binding result [1]: binds
- binding result [2]: binds
B1: GST-SepB α-helix bundle WT (domain or fragment, human, UniProt O75717 718-824, looked up)
chain: IATEKGQMEEQFWRSVIFHNHLDYLAKNGYEYEESTKNQATKEQQELLMKMLALSCKLEREFRCVELADLMTQNAVNLAIKYASRSRKLILAQKLSELAVEKAAELT
notes: AND-1 (WDHD1), human, α-helix bundle of the SepB domain, amino-acid residues 718-824; Cloned into pGEX-2T; also called GST-SepB α-helix bundle chimeric protein; source: E. coli Rosetta pLysS (DE3), purified (Glutathione Sepharose 4B)
